B2: RecA (natural protein, B. subtilis, UniProt P16971 1-348, looked up)
chain: MSDRQAALDMALKQIEKQFGKGSIMKLGEKTDTRISTVPSGSLALDTALGIGGYPRGRIIEVYGPESSGKTTVALHAIAEVQQQGGQAAFIDAEHALDPVYAQKLGVNIEELLLSQPDTGEQALEIAEALVRSGAVDIVVVDSVAALVPKAEIEGDMGDSHVGLQARLMSQALRKLSGAINKSKTIAIFINQIREKVGVMFGNPETTPGGRALKFYSSVRLEVRRAEQLKQGNDVMGNKTKIKVVKNKVAPPFRTAEVDIMYGEGISKEGEIIDLGTELDIVQKSGSWYSYEEERLGQGRENAKQFLKENKDIMLMIQEQIREHYGLDNNGVVQQQAEETQEELEFEE
notes: RecA recombinase, Bacillus subtilis; overproduced from plasmid pBT61 in B. subtilis BG214; also called recombinase RecA

Columns and labels:
RecA = target: B2; assay: far-Western, overlay or dot blot; immuno-dot blot: proteins (75-300 ng) spotted on nitrocellulose, blocked with 5% skimmed milk in PBS, incubated 6 h at 4 °C with 200 ng/ml RecA in PBS, 0.5% skimmed milk powder, 0.1% Triton X-100; washed; retained RecA detected with polyclonal anti-RecA antibody; settings: both partners purified
DinG K290A = target: T1, DinG K290A (B. subtilis, UniProt P54394 1-931, K290A); assay: as above; settings: both partners purified
T1 construct: DinG, Bacillus subtilis, 931 aa, with codon 290 (Lys, Walker A box) replaced by Ala; cloned into pET3a (pCB1260); also called ATPase-deficient DinG; source: E. coli BL21(DE3) [pLysS] carrying pCB1260, purified by the same protocol as wt DinG
T1 sequence (looked up): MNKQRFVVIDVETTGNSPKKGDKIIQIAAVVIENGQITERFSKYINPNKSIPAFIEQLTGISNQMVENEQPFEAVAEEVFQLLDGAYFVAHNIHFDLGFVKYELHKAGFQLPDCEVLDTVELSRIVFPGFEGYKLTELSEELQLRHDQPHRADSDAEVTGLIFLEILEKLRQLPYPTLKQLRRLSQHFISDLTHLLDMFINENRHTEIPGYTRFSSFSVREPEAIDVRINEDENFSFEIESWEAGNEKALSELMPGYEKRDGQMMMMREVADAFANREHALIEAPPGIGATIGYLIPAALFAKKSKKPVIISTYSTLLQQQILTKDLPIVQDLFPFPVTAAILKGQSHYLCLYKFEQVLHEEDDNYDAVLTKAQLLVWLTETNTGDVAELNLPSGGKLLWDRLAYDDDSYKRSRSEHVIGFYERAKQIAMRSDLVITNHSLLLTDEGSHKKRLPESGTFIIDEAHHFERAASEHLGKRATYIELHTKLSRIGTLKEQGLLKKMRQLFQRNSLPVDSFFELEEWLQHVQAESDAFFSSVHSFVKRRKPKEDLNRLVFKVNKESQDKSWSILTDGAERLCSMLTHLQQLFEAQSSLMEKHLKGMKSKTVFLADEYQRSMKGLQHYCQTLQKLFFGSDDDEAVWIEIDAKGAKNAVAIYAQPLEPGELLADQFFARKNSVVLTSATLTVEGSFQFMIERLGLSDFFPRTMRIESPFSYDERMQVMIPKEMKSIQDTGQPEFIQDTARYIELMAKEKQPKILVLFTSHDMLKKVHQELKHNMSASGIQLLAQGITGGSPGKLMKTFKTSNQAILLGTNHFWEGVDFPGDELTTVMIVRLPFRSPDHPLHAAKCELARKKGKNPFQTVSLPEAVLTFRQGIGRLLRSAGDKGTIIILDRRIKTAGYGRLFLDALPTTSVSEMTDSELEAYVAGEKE

DinG D10A E12A = target: T2, DinG D10A E12A (B. subtilis, UniProt P54394 1-931, D10A | E12A); assay: as above; settings: both partners purified
T2 construct: DinG, Bacillus subtilis, 931 aa, with codons 10 (Asp) and 12 (Glu) replaced by Ala; cloned into pET3a (pCB1259); also called exonuclease-deficient DinG; ExoI-deficient DinG variant; source: E. coli BL21(DE3) [pLysS] carrying pCB1259, purified by the same protocol as wt DinG
T2 sequence (looked up): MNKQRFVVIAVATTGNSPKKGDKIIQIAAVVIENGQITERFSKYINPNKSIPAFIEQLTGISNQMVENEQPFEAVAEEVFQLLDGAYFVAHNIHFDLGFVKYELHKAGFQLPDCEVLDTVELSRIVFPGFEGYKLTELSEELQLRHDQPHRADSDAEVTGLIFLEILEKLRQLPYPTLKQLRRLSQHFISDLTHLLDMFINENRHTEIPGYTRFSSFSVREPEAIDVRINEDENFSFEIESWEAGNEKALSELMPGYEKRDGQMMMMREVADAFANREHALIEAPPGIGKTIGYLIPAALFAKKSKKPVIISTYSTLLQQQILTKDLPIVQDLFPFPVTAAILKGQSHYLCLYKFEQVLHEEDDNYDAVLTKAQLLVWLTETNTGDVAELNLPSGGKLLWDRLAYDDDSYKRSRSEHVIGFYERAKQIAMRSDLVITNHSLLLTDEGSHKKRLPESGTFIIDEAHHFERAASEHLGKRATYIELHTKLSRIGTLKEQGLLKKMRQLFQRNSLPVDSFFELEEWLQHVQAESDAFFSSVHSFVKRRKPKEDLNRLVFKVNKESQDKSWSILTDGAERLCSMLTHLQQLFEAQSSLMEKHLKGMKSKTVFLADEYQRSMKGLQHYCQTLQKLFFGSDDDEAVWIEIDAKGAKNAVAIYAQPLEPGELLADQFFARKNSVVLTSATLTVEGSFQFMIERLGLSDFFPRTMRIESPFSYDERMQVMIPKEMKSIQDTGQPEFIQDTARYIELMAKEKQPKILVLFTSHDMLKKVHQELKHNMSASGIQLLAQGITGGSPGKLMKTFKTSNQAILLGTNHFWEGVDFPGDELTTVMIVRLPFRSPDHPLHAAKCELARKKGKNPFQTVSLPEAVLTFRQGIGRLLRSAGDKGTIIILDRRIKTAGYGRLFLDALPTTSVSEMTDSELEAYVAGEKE

DinG [1] = target: T3, DinG (Bacillus subtilis, UniProt P54394 1-931); assay: EMSA; 2 mM EDTA, no metal; Kapp; text names lssDNA38, Methods and Fig S4 legend give lssDNA45; EMSA, buffer D (composition not in material; 3 mM MgCl2, or 2 mM EDTA instead), 0.5 nM DNA, 37 °C, 10 min (text: 5 min), 15% native PAGE in TBE 1X; pH and salt; settings: protein: recombinant; tags: none stated (pET3a, untagged); label: 5'-32P; single strand
T3 sequence: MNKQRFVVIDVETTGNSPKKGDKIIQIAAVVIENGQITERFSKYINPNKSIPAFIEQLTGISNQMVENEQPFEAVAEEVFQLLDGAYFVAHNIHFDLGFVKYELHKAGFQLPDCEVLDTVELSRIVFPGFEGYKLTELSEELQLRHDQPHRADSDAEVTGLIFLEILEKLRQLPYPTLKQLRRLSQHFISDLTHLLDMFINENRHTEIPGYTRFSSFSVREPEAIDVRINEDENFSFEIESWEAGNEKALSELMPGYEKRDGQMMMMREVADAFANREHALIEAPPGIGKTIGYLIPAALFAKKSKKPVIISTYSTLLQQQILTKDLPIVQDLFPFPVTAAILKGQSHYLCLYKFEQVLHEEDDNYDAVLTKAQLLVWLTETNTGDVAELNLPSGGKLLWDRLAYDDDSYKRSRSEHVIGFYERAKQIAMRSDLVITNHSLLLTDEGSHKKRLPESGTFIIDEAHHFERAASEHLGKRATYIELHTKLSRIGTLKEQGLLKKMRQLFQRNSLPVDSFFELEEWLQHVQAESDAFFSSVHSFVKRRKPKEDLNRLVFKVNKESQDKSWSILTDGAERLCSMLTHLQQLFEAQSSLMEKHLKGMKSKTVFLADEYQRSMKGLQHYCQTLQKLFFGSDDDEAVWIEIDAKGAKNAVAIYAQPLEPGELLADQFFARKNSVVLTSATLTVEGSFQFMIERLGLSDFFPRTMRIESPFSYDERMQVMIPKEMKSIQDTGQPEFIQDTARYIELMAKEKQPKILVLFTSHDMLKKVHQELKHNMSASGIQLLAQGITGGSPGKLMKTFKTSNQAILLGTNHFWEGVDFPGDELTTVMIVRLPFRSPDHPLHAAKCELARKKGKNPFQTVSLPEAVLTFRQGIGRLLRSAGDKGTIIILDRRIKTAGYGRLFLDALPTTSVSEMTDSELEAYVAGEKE

DinG [2] = target: T3, DinG; assay: EMSA; 3 mM Mg2+; substrate degraded during assay; Kapp; EMSA, buffer D (composition not in material; 3 mM MgCl2, or 2 mM EDTA instead), 0.5 nM DNA, 37 °C, 10 min (text: 5 min), 15% native PAGE in TBE 1X; pH and salt; settings: protein: recombinant; tags: none stated (pET3a, untagged); label: 5'-32P; single strand

B1: RnhC (enzyme, B. subtilis, UniProt P94541 1-313, looked up)
chain: MSHSVIKVSLSAIDQMKMTYSGSLTASVPQGAVFQAKPPGCTITAYQSGKVLFQGKNAAAESARWGTAEPQEKKKTAKKPADPRYAPPADIAGMSVIGSDEVGTGDYFGPMTVVCAYVDKTMLPLMKELGVKDSKDLKDPQIIEIARNLIKTIPYSLLVLKNEKYNSMQEKGMSQGKMKALLHNQAITHLLRKLDGVKPEAILIDQFAEPGVYFNHLKGRDIVKERTYFSTKAEGIHLAVAAASIIARYSFLMEMDKLSRAAGMTLPKGAGPHVDEAAAKLILKKGASALRTFTKLHFANTQKAQRLADKKRS
notes: RnhC (RNase HIII), Bacillus subtilis; rnhC gene cloned into NdeI-linearised pET21b (pCB1242); also called RNase HIII; RnhC-His; source: E. coli BL21(DE3) [pLysS] carrying pCB1242 (rnhC-His), purified (Ni2+ His-Trap)
B1: binds (RecA).

B2: binds (DinG K290A); binds (DinG D10A E12A).

B3: 3'-Biotin gamma32P-lssDNA45 (ssDNA)
DNA: GTACGTATTCAAGATACCTCGTACTCTGTACTGACTCGGATCCTA
modifications: biotin-T at position 44 (second from 3' end)
With B3 the “apparent K (half saturation)” value (DinG [1]) was roughly 0.7 nM and the “apparent K (half saturation)” value (DinG [2]) was less than 0.08 nM.

Reference: publication PMC12525004, “Bacillus subtilis DinG 3′⟶5′ Exo(ribo)nuclease: A Helpmate to Mitigate Replication Stress” (International Journal of Molecular Sciences, 2025)
